In general, Kd refers to the concentration at which binding is half-saturated. As usually defined, the koff is a measure of how fast the partners let go of each other. High values mean fast dissociation, low ones slow dissociation. As a reminder, the kon is the rate constant with which the complex forms. The low end stands for slow association, the high end for fast association. By EC50 is commonly meant the midpoint of the concentration-response curve. A higher EC50 goes with a less potent agent.

4 molecules from US20250002557A1 (SUZHOU LIGHT FERRY BIOMED, published 2025) can be followed below.

To fix the notation:
B1: VEGF-C (ligand, UniProt P49767 112-227, looked up)
chain: AHYNTEILKSIDNEWRKTQCMPREVCIDVGKEFGVATNTFFKPPCVSVYRCGGCCNSEGLQCMNTSTSYLSKTLFEITVPLSQGPKPVTISFANHTSCRCMSKLDVYRQVHSIIRR
notes: Bought reagent
B2: VEGF-D (ligand, UniProt O43915 89-205, looked up)
chain: FAATFYDIETLKVIDEEWQRTQCSPRETCVEVASELGKSTNTFFKPPCVNVFRCGGCCNEESLICMNTSTSYISKQLFEISVPLTSVPELVPVKVANHTGCKCLPTAPRHPYSIIRR
notes: Bought reagent
B3: PDGF-BB (ligand, UniProt P01127 82-190, looked up)
chain: SLGSLTIAEPAMIAECKTRTEVFEISRRLIDRTNANFLVWPPCVEVQRCSGCCNNRNVQCRPTQVQLRPVQVRKIEIVRKKPIFKKATVTLEDHLACKCETVAAARPVT
notes: Bought reagent
B4: VEGFR2-Fc (Met1-Glu764) (Fc fusion)
chain: ASVGLPSVSLDLPRLSIQKDILTIKANTTLQITCRGQRDLDWLWPNNQSGSEQRVEVTECSDGLFCKTLTIPKVIGNDTGAYKCFYRETDLASVIYVYVQDYRSPFIASVSDQHGVVYITENKNKTVVIPCLGSISNLNVSLCARYPEKRFVPDGNRISWDSKKGFTIPSYMISYAGMVFCEAKINDESYQSIMYIVVVVGYRIYDVVLSPSHGIELSVGEKLVLNCTARTELNVGIDFNWEYPSSKHQHKKLVNRDLKTQSGSEMKKFLSTLTIDGVTRSDQGLYTCAASSGLMTKKNSTFVRVHEKPFVAFGSGMESLVEATVGERVRIPAKYLGYPPPEIKWYKNGIPLESNHTIKAGHVLTIMEVSERDTGNYTVILTNPISKEKQSHVVSLVVYVPPQIGEKSLISPVDSYQYGTTQTLTCTVYAIPPPHHIHWYWQLEEECANEPSQAVSVTNPYPCEEWRSVEDFQGGNKIEVNKNQFALIEGKNKTVSTLVIQAANVSALYKCEAVNKVGRGERVISFHVTRGPEITLQPDMQPTEQESVSLWCTADRSTFENLTWYKLGPQPLPIHVGELPTPVCKNLDTLWKLNATMFSNSTNDILIMELKNASLQDQGDYVCLAQDRKTKKRHCVVRQLTVLERVAPTITGNLENQTTSIGESIEVSCTASGNPPPQIMWFKDNETLVEDSGIVLKDGNRNLTIRRVRKEDEGLYTCQACSVLGCAKVEAFFIIEGAQEKTNLE
notes: also called VEGFR2-Fc with the full extracellular domain; Full VEGFR2 extracellular domain; not shown: Fc part

Assay [1] addresses B4. The experiment in a line: SPR Biacore T200 (Example 8).
The target in assay [2] is B4. The experiment in a line: SPR, PDGF coupled to CM5 chip, VEGFR2-Fc in flow; row label printed PDGF-BR. The source says: Nevertheless, it was found in the preliminary detection experiments that PDGF family molecules (purchased from R&D Systems Inc.) were prone to produce non-specific binding in the chip, resulting in a pseudo-elevation in measured values, such that the detection could not be completed. Therefore, PDGF-AA, PDGF-AB, PDGF-BB and PDGF-CC molecules were separately loaded through a coupling reaction on a CM5 chip, followed by influx of the recombinant receptor molecules, thus effectively eliminating the impact of non-specific binding on affinity determination.
(In general: Surface plasmon resonance follows binding to a sensor surface in real time, without labels.)

Assay [3] concerns the target B1. The experiment in a line: ELISA binding to VEGF-C, absorbance 450 nm. In general terms: An ELISA detects its analyte on a solid surface through an enzyme-linked reagent.
Procedure: VEGF-A165, VEGF-C and VEGF-D polypeptide molecules were purchased from ACROBiosystems Inc. VEGF molecules at 100-300 ng/well prepared in PBS were used for coating overnight at 4° C., the next day, the plates were washed with PBS, and 1% BSA solution was added to block for 2 hours at room temperature, after which the plates were washed again with PBS. […] Goat anti-human Fc secondary antibody conjugated with horseradish peroxidase diluted in PBT was added, followed by incubation at room temperature and 300 rpm for 1 hour, after that, the plates were washed three times with PBST solution. Then TMB was added for color development, terminated with 5% hydrochloric acid solution, and finally, the OD values at 450 nm were read using a microplate reader.
For assay [4], the target named is B2. The experiment in a line: blocking ELISA: His-VEGF-D premixed with sample, binding to coated VEGFR2-Fc read with anti-His-HRP. Here is the method:
(§1) During the blocking period, each recombinant receptor molecule was serially diluted from high to low concentrations, mixed evenly with 100 ng/well of VEGF-C or VEGF-D (both labeled with His-tag), allowing for incubation at room temperature for 30 minutes. […] The plates were washed with PBST, then anti-polyhistidine secondary antibody conjugated with horseradish peroxidase was added to allow for incubation and binding at room temperature for 1 hour. Then the plates were washed with PBST, TMB was added for color development, terminated with 5% hydrochloric acid solution, and finally, the OD values at 450 nm were read using a microplate reader.

For assay [5], the target named is B2. The experiment in a line: blocking ELISA: His-VEGF-D premixed with sample, binding to coated VEGFR3-Fc read with anti-His-HRP. Here is the method: (§2) During the blocking period, each recombinant receptor molecule was serially diluted from high to low concentrations, mixed evenly with 10 ng/well of VEGF-C or 500 ng/well of VEGF-D (both labeled with His-tag), allowing for incubation at room temperature for 30 minutes. […] The plates were washed with PBST, then TMB was added for color development, terminated with 5% hydrochloric acid solution, and finally, the OD values at 450 nm were read using a microplate reader.

Assay [6] deals with B2. The assay is described as above. As for the experimental part: as §2
The source holds these as a separate data set.

Assay [7] deals with B2. The experiment in a line: blocking ELISA: His-VEGF-D premixed with sample, binding to coated VEGFR2-Fc read with anti-His-HRP. Here is the method: as §1
This is another data set of the same source.

B1: in assay [1], binding was characterised by a dissociation constant (Kd) of 16.7 nM, the koff was found to be 0.000452 s⁻¹ and the kon came to 27100 M⁻¹ s⁻¹.

In assay [1], B2 gave a Kd of 21 nM, a koff of 0.000673 s⁻¹ and a kon of 32100 M⁻¹ s⁻¹.

B3 showed a Kd in assay [2] of 14.1 nM.

With B4, the EC50 worked out at 269 nM in assay [3]; 31.5 nM in assay [4]; 33.4 nM in assay [5]; 33.4 nM in assay [6]; 31.5 nM in assay [7].
